{"source": "paper PMC11789342", "about": "“5-Aminolevulinic acid activates the MdWRKY71-MdMADS1 module to enhance anthocyanin biosynthesis in apple”", "data": [{"biological_target": "MdWRKY71 (Malus x domestica, UniProt A0A7S5AU16 1-327)", "sequence (A0A7S5AU16 entry or part of it)": "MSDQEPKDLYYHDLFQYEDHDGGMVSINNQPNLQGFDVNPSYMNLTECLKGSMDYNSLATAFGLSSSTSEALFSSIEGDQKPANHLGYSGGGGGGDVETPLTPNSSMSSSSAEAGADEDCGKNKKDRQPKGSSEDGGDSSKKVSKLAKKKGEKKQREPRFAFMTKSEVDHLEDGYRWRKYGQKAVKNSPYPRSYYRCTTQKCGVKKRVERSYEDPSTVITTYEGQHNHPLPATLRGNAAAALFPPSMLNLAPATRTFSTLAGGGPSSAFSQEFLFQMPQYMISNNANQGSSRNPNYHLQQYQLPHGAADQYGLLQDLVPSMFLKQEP", "assay": "EMSA; LightShift Chemiluminescent EMSA Kit per manufacturer; buffer, salt, pH and temperature not stated", "conditions": "protein: recombinant; tags: His (pET32a); label: biotin", "values": [{"binder": "ProMdMADS1 W-box3 mutant probe (dsDNA) DNA 1: CCTGAGGTTATTAACGCCAAAAGAAAA DNA 2: TTTTCTTTTGGCGTTAATAACCTCAGG", "binding result": "no binding"}, {"binder": "ProMdMADS1 W-box2 mutant probe (dsDNA) DNA 1: ATTTACTATTTTTAGCATTACAATTT DNA 2: AAATTGTAATGCTAAAAATAGTAAAT", "binding result": "no binding"}, {"binder": "ProMdANS W-box probe (dsDNA) DNA 1: ATCCCAGATGTGTTGACTGTTCATGCTCAG DNA 2: CTGAGCATGAACAGTCAACACATCTGGGAT", "binding result": "binds"}, {"binder": "ProMdMADS1 W-box1 mutant probe (dsDNA) DNA 1: ACTTTGTGGCTTTAGCATTTTGAAGA DNA 2: TCTTCAAAATGCTAAAGCCACAAAGT", "binding result": "no binding"}, {"binder": "ProMdDFR W-box probe (dsDNA) DNA 1: TGGGACTCTTCATTGACTCTCCGCCACATC DNA 2: GATGTGGCGGAGAGTCAATGAAGAGTCCCA", "binding result": "binds"}]}]}
